Experimental findings from article PMC7959301 are described below.

This assay concerns the target SpyCatcher-fused ferritin protein (Streptococcus pyogenes | not stated). Description: SDS-PAGE of the covalent SpyTag/SpyCatcher adduct.

Take 6 × His-SpyTag-AE2F SOSIP.664: the percent of input conjugated is 80 to 90%.
